This passage reports Kd results from publication PMC4689532.

Common to all, as to test: SPR; Biacore T100, 37°C, HBS-EP; biotinylated ligand captured with the Biotin CAPture Kit, reference biotinylated rat Cd4d3+4; purified his-tagged analyte injected at 20 μl/min, equilibrium fit Req = CRmax/(C+KD); lower concentrations did not reach equilibrium, KD likely slightly overestimated
The target in experiment [1] is P. falciparum P41, AVEXIS bait/prey form (P. falciparum).
Experiment [2] deals with P. vivax P41 (PVX_000995, 6-cysteine protein), entire ectodomain, AVEXIS bait/prey form (P. vivax) (UniProt A5KAP6).
The target of experiment [3] is P. vivax P12 (PVX_113775, 6-cysteine protein), entire ectodomain, AVEXIS bait/prey form (P. vivax) (UniProt A5K1W7).

For “P. vivax P12 (PVX_113775), entire ectodomain, 6-His tagged, purified (from UniProt A5K1W7 24-339) (domain or fragment)”, the Kd (usually the concentration at which binding is half-saturated) in experiment [1] is 31 nM; in experiment [2] it was 120 nM.
Consider “P. vivax P41 (PVX_000995), entire ectodomain, 6-His tagged, purified (from UniProt A5KAP6 22-384) (domain or fragment)”, for which, in experiment [3], the Kd is 77 nM.
